Test results reported in PMC12292525, “Identification, Cloning, and Functional Characterization of Carotenoid Cleavage Dioxygenase (CCD) from Olea europaea and Ipomoea nil” (Biology, 2025).

Tested on: CC1=C(/C=C/C(C)=C/C=C/C(C)=C/C=C/C=C(C)/C=C/C=C(\C)C=O)C(C)(C)CCC1
Assay: beta-ionone formation, Michaelis-Menten nonlinear fit
Type: biochemical, Olea europaea
Settings: optimal reaction conditions (pH 9.5 Gly-NaOH, 45 °C reported as optimum), O2 co-substrate
From the text: beta-ionone formation, Michaelis-Menten nonlinear fit on OeCCD1

OeCCD1 (Olea europaea var. sylvestris)
Km: 820 µM
Vmax: 2.3 µmol/min/mg
kcat: 3.35 s⁻¹
kcat/Km: 4090 M⁻¹ s⁻¹
